Patent US20230093708A1, “PROTEIN NANOPARTICLE DESIGN AND APPLICATION” (Duke University, priority 2020, published 2023)
Non-standard residues stand in square brackets, D forms with d. Phe(4-N3) = [N-]=[N+]=Nc1ccc(C[C@H](N)C(=O)O)cc1

B1: [S]-40-[QHN]-40: block co-polypeptide of two UCST blocks, (GRGDSPYS)40-(GRGDQPHN)40 (protein)
chain: GRGDSPYSGRGDSPYSGRGDSPYSGRGDSPYSGRGDSPYSGRGDSPYSGRGDSPYSGRGDSPYSGRGDSPYSGRGDSPYSGRGDSPYSGRGDSPYSGRGDSPYSGRGDSPYSGRGDSPYSGRGDSPYSGRGDSPYSGRGDSPYSGRGDSPYSGRGDSPYSGRGDSPYSGRGDSPYSGRGDSPYSGRGDSPYSGRGDSPYSGRGDSPYSGRGDSPYSGRGDSPYSGRGDSPYSGRGDSPYSGRGDSPYSGRGDSPYSGRGDSPYSGRGDSPYSGRGDSPYSGRGDSPYSGRGDSPYSGRGDSPYSGRGDSPYSGRGDSPYSGRGDQPHNGRGDQPHNGRGDQPHNGRGDQPHNGRGDQPHNGRGDQPHNGRGDQPHNGRGDQPHNGRGDQPHNGRGDQPHNGRGDQPHNGRGDQPHNGRGDQPHNGRGDQPHNGRGDQPHNGRGDQPHNGRGDQPHNGRGDQPHNGRGDQPHNGRGDQPHNGRGDQPHNGRGDQPHNGRGDQPHNGRGDQPHNGRGDQPHNGRGDQPHNGRGDQPHNGRGDQPHNGRGDQPHNGRGDQPHNGRGDQPHNGRGDQPHNGRGDQPHNGRGDQPHNGRGDQPHNGRGDQPHNGRGDQPHNGRGDQPHNGRGDQPHNGRGDQPHN
B2: [S]-80-[QHN]-40: block co-polypeptide of two UCST blocks, (GRGDSPYS)80-(GRGDQPHN)40 (protein)
chain: GRGDSPYSGRGDSPYSGRGDSPYSGRGDSPYSGRGDSPYSGRGDSPYSGRGDSPYSGRGDSPYSGRGDSPYSGRGDSPYSGRGDSPYSGRGDSPYSGRGDSPYSGRGDSPYSGRGDSPYSGRGDSPYSGRGDSPYSGRGDSPYSGRGDSPYSGRGDSPYSGRGDSPYSGRGDSPYSGRGDSPYSGRGDSPYSGRGDSPYSGRGDSPYSGRGDSPYSGRGDSPYSGRGDSPYSGRGDSPYSGRGDSPYSGRGDSPYSGRGDSPYSGRGDSPYSGRGDSPYSGRGDSPYSGRGDSPYSGRGDSPYSGRGDSPYSGRGDSPYSGRGDSPYSGRGDSPYSGRGDSPYSGRGDSPYSGRGDSPYSGRGDSPYSGRGDSPYSGRGDSPYSGRGDSPYSGRGDSPYSGRGDSPYSGRGDSPYSGRGDSPYSGRGDSPYSGRGDSPYSGRGDSPYSGRGDSPYSGRGDSPYSGRGDSPYSGRGDSPYSGRGDSPYSGRGDSPYSGRGDSPYSGRGDSPYSGRGDSPYSGRGDSPYSGRGDSPYSGRGDSPYSGRGDSPYSGRGDSPYSGRGDSPYSGRGDSPYSGRGDSPYSGRGDSPYSGRGDSPYSGRGDSPYSGRGDSPYSGRGDSPYSGRGDSPYSGRGDSPYSGRGDQPHNGRGDQPHNGRGDQPHNGRGDQPHNGRGDQPHNGRGDQPHNGRGDQPHNGRGDQPHNGRGDQPHNGRGDQPHNGRGDQPHNGRGDQPHNGRGDQPHNGRGDQPHNGRGDQPHNGRGDQPHNGRGDQPHNGRGDQPHNGRGDQPHNGRGDQPHNGRGDQPHNGRGDQPHNGRGDQPHNGRGDQPHNGRGDQPHNGRGDQPHNGRGDQPHNGRGDQPHNGRGDQPHNGRGDQPHNGRGDQPHNGRGDQPHNGRGDQPHNGRGDQPHNGRGDQPHNGRGDQPHNGRGDQPHNGRGDQPHNGRGDQPHNGRGDQPHN
B3: Tn3: UAA5-40-K8D4-ligand construct with DR5-targeting Tn3 ligand (SEQ ID NO: 62) (protein)
chain: AIEVKDVTDTTALITWAKPWVDPPPLWGIELTYGIKDVPGDRTTIDLQQKHTAYSIGNLKPDTEYEVSLISFDPYGMRSKPAKETFTT
B4: UAA4-80: pAzF-containing worm-forming diblock construct (protein)
chain: QYPSDGRGQYPSDGRGQYPSDGRGQYPSDGRG[Phe(4-N3)]QYPSDGRGQYPSDGRGQYPSDGRGQYPSDGRG[Phe(4-N3)]QYPSDGRGQYPSDGRGQYPSDGRGQYPSDGRG[Phe(4-N3)]QYPSDGRGQYPSDGRGQYPSDGRGQYPSDGRG[Phe(4-N3)]QYPSDGRGQYPSDGRGQYPSDGRGQYPSDGRG[Phe(4-N3)]

Columns and labels:
αvβ3 integrin = αvβ3 integrin (Homo sapiens, UniProt P05106+P06756); test: SPR of crosslinked and native pAzF diblock constructs; format: binding; conditions: crosslinked UAA5-40-based constructs
Experimental: (§1) Though we were interested in the downstream effects of the treatment with crosslinked nanoparticles, we also wanted to investigate how chemical crosslinking affected the binding to the cell membrane receptors themselves. For this, the binding affinities of crosslinked and native diblock architectures were evaluated using surface plasmon resonance (SPR).
To characterize the integrin-targeting constructs, we started by determining the KD values of the UAA5-40-based constructs. […] A closer look at the SPR sensograms describes the mechanism for this effect where the main reason for the increased KD for the ligands is a result of vastly different association rates (kon) rather than differences in koff.

[1] = Critical micelle concentration by pyrene I1/I3 fluorescence; format: physicochemical; conditions: inflection point of sigmoidal fit, triplicate data
Experimental: Key parameters of interest are the hydrophilicity of the corona-forming block, the hydrophilicity of the core block, the overall length of the co-polypeptide and the ratio of the two blocks. Parameters of evaluation are the size, morphology, stability, and thermoresponsive behavior. All measurements were made in 140 mM NaCl, 10 mM phosphate buffer, 3 mM KCl, pH 7.4 unless otherwise specified. Size was evaluated by the hydrodynamic radios (Rh) and radius of gyration (Rg) by dynamic light scattering (DLS) and static light scattering (SLS) respectively. Rg and Rh can be combined to yield the shape factor ρ=Rg/Rh, which provides a rough indication of the morphology of the scatterer. […] For an elongated scatterer, the shape factor depends upon the aspect ratio. A combination of temperature dependent turbidity and DLS was utilized to determine the phase behavior of the block co-polypeptides. Cryogenic transmission electron microscopy (Cryo-TEM) was utilized to evaluate the morphology and provide crucial insight into the hydration of the core/corona chains. Stability of the assembled nanostructure was determined by a shift in the I1/I3 fluorescent bands of pyrene as described previously.
All of these modifications to the core and corona chains prompted us to measure the critical micelle concentration (CMC) of these micelle constructs. […]

[2] = Static and dynamic light scattering (SLS/DLS) of block co-polypeptides; format: physicochemical; conditions: for ρ / Nagg / Rg(nm) / Rh (nm): Table 9; for ρ: Rg/Rh; for Nagg / Rg(nm) / Rh (nm): UCST-UCST block co-polypeptides
In short: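 Samples at 10 μM in PBS (140 mM NaCl, 10 mM phosphate, 3 mM KCl, pH 7.4), filtered 0.45 μm, measured at 15 °C over 30°–150° in 5° steps. Rh from cumulant fit of DLS, extrapolated to zero angle. Rg and MW from partial Zimm plots of SLS.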

[3] = Temperature-programmed dynamic light scattering; format: physicochemical; conditions: upon cooling
Experimental: Temperature-programmed dynamic light scattering experiments were carried out using a Dynapro plate reader (Wyatt Technology; Santa Barbara, Calif.) with samples filtered through 0.45 μm Millex-GV filters. Data were collected at increments of 1° C., and the cumulant fit hydrodynamic radius was taken as the radius. The Tt was defined as the temperature at which aggregates of size hundreds of nanometers were formed.
Each block co-polypeptide was analyzed by dynamic light scattering (DLS) at several temperatures between 4° C. and 37° C. to determine the thermal stability of the micelles, and to determine their radius of hydration (Rh). […] In contrast, RLP40-ELP80 (SEQ ID NO: 84) and RLP40-ELP80-Fn3 (SEQ ID NO: 96) self-assembled into micelles with a Rh of 30 and 32 nm, respectively, between 20-37° C. (FIG. 15).
Therefore, to get a more accurate picture, we monitored the Rh as we slowly cooled the solution. We observed two different overall behaviors. [S]-40-[QHN]-40 (SEQ ID NO: 100) upon cooling underwent a clear unimer to micelle transition at ˜55° C. and a clear micelle to aggregate transition at 28° C. (FIG. 32B). A unimer to micelle transition that is temperature dependent is known as the critical micellization temperature (CMT). As we know from before, this UCST aggregation temperature is dependent on the solution concentration. [S]-80-[QHN]-40 (SEQ ID NO: 101) remained a micelle at the highest temperature we could measure with the instrument. Upon cooling the size of the aggregate increased slightly until a clear aggregate transition at 18° C.

DR5 = DR5 (Homo sapiens, UniProt O14763); test: SPR of DR5-targeting UAA5-40 constructs; format: binding; conditions: native construct, same concentration range
Experimental: as §1
This extremely good binding constant can be mainly attributed to the koff rate which is so low that it is most probably even below the limit of detection of the SPR instrument. As opposed to the integrin-targeting UAA5-40 particles, we however also observed very strong binding for the native Tn3 construct in the same concentration range (FIG. 53B). […] Principally, this was not a too unexpected result since we already knew that apoptosis induction via DR5-binding required downstream trimerization of the ligand-bound DR5 receptors in the cell membrane. Therefore, we had expected that the reported multivalency requirement for Tn3-action was at least partly stemming from this mechanistic effect rather than the DR5-binding itself.

[4] = Critical assembly concentration (CAC) by DLS dilution series; format: physicochemical
Experimental: Lastly, we also wanted to determine the critical assembly concentration (CAC) of the individual constructs. The Rh values were measured with DLS over a dilution series from the mid-micromolar down to the low nanomolar range. […] Curiously, the mere introduction of crosslinking sites seems to dramatically decrease the CAC. Generally, the worm-forming constructs had lower CACs than their spherical analogues and so do pAzF-containing constructs in comparison to analogous pAzF-free polypeptides.

[5] = DLS of native and crosslinked pAzF diblock constructs in PBS and GuHCl; format: physicochemical
Text: We wanted to thoroughly investigate the effects of pAzF-introduction as well as nanoparticle crosslinking on nanoparticle self-assembly. For this, we started by characterizing solely our five different ELP/RLP diblock architectures without any C-terminal functionalization. After expression and purification of the diblock constructs using ITC, the pAzF-containing constructs were crosslinked in solution by exposure to UV irradiation and characterized using dynamic light scattering (DLS). […] Generally, both processes seem to have increased the measured radii with this effect being more pronounced for the worm-forming constructs.
Apart from changes in nanoparticle morphology we were particularly interested in the effect pAzF-crosslinking had on their stability. […] GuHCl is a well-known denaturing agent that disrupts any inter- and intramolecular electrostatic forces and completely breaks down the quaternary, tertiary and secondary structure of most known proteins. Covalent bonds—such as the ones formed by pAzF-crosslinking—however remain unaffected by GuHCl, thus, the addition of this denaturing agent was expected to give us insights on the stability of our crosslinked nanoparticles. […] All native samples on the other hand resorted to complete unimerization upon exposure to GuHCl. As the Rh values for the crosslinked particles in GuHCl were generally larger than in PBS, the DLS data furthermore indicates a swelling behavior in the presence of the denaturing agent. This can most probably be attributed to the RLP core which is assumed to be completely collapsed in PBS but will however try to reach an elongated, random-coil morphology in the presence of GuHCl.
The first step of the characterization process was to produce crosslinked particles for the functionalized diblock constructs and to analyze whether the attachment of the ligands had caused any significant changes in particle size. […] Whatever the reason was, it had no effect on the crosslinking process as the particles still remained stable after GuHCl exposure.
Dynamic light scattering of cross-linkable protein nanoparticles was performed. […] However, these crosslinked particles remain assembled, actually growing slightly in size due to chain swelling of the core and corona in this new buffer. These novel scaffolds support various targeting domains and assemble into nearly identically sized nanoparticles between […] in hydrodynamic radius.

αvβ3 integrin, sequence (P06756 31-889 limits assumed): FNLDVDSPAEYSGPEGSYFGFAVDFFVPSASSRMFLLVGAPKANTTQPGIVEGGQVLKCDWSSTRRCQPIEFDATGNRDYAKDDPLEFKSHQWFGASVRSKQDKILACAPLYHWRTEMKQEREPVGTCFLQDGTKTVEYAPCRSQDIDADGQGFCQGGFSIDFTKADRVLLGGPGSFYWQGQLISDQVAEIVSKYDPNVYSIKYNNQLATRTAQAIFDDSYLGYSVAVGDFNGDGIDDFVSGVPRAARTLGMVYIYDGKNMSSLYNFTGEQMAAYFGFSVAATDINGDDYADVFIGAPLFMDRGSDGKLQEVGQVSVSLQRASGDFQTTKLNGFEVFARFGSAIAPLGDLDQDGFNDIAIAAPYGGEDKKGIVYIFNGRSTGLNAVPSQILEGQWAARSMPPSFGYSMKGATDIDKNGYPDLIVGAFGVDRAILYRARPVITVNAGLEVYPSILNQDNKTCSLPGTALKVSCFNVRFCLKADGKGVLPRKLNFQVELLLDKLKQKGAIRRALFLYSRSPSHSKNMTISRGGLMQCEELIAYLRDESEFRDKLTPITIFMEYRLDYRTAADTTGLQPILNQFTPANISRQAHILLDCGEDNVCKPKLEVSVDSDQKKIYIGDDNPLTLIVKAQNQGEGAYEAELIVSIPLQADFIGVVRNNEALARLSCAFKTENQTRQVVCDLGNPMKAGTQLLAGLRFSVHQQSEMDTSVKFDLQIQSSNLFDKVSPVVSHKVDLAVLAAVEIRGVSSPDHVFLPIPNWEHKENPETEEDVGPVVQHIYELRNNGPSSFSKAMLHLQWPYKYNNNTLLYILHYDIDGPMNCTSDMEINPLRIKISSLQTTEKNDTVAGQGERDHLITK
αvβ3 integrin, sequence (P06756 891-1048 partner limits assumed): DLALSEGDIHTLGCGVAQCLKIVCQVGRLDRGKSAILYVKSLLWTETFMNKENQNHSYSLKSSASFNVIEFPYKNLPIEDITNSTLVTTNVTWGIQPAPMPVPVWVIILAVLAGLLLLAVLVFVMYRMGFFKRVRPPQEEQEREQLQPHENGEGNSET
αvβ3 integrin, sequence (P05106 27-788): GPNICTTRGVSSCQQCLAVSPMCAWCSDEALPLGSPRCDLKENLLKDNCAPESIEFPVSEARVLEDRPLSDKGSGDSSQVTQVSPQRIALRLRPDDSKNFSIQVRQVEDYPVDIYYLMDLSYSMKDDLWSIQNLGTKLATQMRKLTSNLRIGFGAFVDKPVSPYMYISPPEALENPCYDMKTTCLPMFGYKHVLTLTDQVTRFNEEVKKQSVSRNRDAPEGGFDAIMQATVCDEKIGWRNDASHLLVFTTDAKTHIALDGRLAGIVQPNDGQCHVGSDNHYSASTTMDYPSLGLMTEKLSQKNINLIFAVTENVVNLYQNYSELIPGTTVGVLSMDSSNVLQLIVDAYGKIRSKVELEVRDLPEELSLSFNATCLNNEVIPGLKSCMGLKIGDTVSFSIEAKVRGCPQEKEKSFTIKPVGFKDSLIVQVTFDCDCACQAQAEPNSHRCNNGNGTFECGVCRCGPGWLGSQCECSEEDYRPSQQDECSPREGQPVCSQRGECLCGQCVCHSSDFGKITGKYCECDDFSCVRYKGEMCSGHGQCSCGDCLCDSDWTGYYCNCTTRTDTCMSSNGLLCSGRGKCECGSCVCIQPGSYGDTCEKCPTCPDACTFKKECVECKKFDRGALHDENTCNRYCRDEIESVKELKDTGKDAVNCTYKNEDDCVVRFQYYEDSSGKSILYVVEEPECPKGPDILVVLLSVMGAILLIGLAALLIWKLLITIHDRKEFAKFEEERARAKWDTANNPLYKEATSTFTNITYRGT

Row | Molecule | critical micelle concentration (CMC) [1] | ρ [2] | Nagg [2] | Rg(nm) [2] | Rh (nm) [2] | micelle to aggregate transition (UCST aggregation) [3] | other results
1 | GRGDSPAS: UAA5-40-K8D4-ligand construct with integrin-targeting GRGDSPAS ligand (SEQ ID NO: 76) | – | – | – | – | – | – | Kd (αvβ3 integrin): 20 nM
2 | B1 | 3 µM | 1.2 | 43 | 35.1 nm | 28.4 nm | 28 °C | aggregation number (Nagg) [2]: 43; hydrodynamic radius (Rh) [2]: 28.4 nm; radius of gyration (Rg) [2]: 35.1 nm; unimer to micelle transition (critical micellization temperature, CMT) [3]: ~55 °C
3 | B2 | 0.4 µM | 1.2 | 1430 | 75.7 nm | 62.8 nm | 18 °C | shape factor / form factor (Rg/Rh) [2]: > 1
4 | B3 | – | – | – | – | – | – | Kd (DR5): 0.25 nM
5 | B4 | – | – | – | – | – | – | CAC [4]: 30 to 50 nM; RH (nm) ([5]; 15 μm in 7.2M GuHCl, crosslinked): 138.1 ± 12.5 nm; RH (nm) ([5]; 15 μm in 7.2M GuHCl, native (not crosslinked)): 7.4 ± 1.9 nm; RH (nm) ([5]; 15 μm in PBS, crosslinked): 86.2 ± 4.5 nm; RH (nm) ([5]; 15 μm in PBS, native (not crosslinked)): 55.7 ± 2.3 nm
